± gives the standard error. Fewer inactive variants are shown than the library holds.
B1: glmS ribozyme (parent)
chain: AUAAAAGCGCCAGAACUACAGAAAUGUAGUUGACGAGGAGGAGGUUUAUCGAAUUUUCGGCGGAUGCCUCCAAA

Key:
Settings in all cases: with glucosamine-6-phosphate
[1] = variants of: B1; experiment: self-cleavage kobs at 40 uM GlcN6P; higher = faster cleavage; RNA array
Outline: (§1)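 Using a hybridised Cy3 probe at 37 °C, barcoded ribozyme variants transcribed in situ by E. coli RNA polymerase on sequenced MiSeq chips were monitored across tiles imaged over ~14 h. The flow contained glucosamine-6-phosphate from 40 μM to 10 mM in HEPES/KCl/Mg(OAc)2 buffer. Signals were normalised to baseline and to non-cleaving reference variants before per-tile medians were fit to one- or two-exponential decays to yield kobs. Weighted Michaelis–Menten fits across concentrations gave kcat and KM.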

[2] = variants of: B1; experiment: self-cleavage kobs at 160 uM GlcN6P; higher = faster cleavage; RNA array
Outline: as §1

[3] = variants of: B1; experiment: self-cleavage kobs at 640 uM GlcN6P; higher = faster cleavage; RNA array
Outline: as §1

[4] = variants of: B1; experiment: self-cleavage kobs at 10000 uM GlcN6P; higher = faster cleavage; RNA array
Outline: as §1

[5] = variants of: B1; experiment: self-cleavage kobs at 2500 uM GlcN6P; higher = faster cleavage; RNA array
Outline: as §1

Variant	self-cleavage kobs at 40 uM GlcN6P [1]	self-cleavage kobs at 160 uM GlcN6P [2]	self-cleavage kobs at 640 uM GlcN6P [3]	self-cleavage kobs at 10000 uM GlcN6P [4]	self-cleavage kobs at 2500 uM GlcN6P [5]
A14C A52C	< 1e-05 s⁻¹	< 1e-05 s⁻¹	< 1e-05 s⁻¹	< 1e-05 s⁻¹	–
C16G C34G G40C U55A C58U U69A	< 1e-05 s⁻¹	–	–	< 1e-05 s⁻¹	–
A15U C34U	< 1e-05 s⁻¹	< 1e-05 s⁻¹	< 1e-05 s⁻¹	–	< 1e-05 s⁻¹
A14U A15G A33U A48U C50U G60C	< 1e-05 s⁻¹	–	–	–	–
C16U A53C U54A	0.000103 ± 2.4e-05 s⁻¹	–	–	0.00236 ± 0.00047 s⁻¹	–
A14G A15U	0.00111 ± 0.00019 s⁻¹	0.000722 ± 0.00014 s⁻¹	0.00751 ± 0.0013 s⁻¹	0.0592 ± 0.021 s⁻¹	0.00555 ± 0.0014 s⁻¹
G13U C58A	4.24e-05 ± 1.8e-05 s⁻¹	7.4e-05 ± 1.6e-05 s⁻¹	0.000326 ± 5.2e-05 s⁻¹	0.00176 ± 0.00026 s⁻¹	0.000524 ± 8.1e-05 s⁻¹
A14U U55A	0.000252 ± 3.9e-05 s⁻¹	–	–	0.00696 ± 0.0011 s⁻¹	–
A15C C16U U57A G66C	< 1e-05 s⁻¹	–	–	< 1e-05 s⁻¹	–
A14U G29C G38U C50G	0.000223 ± 7.2e-05 s⁻¹	–	–	7.38e-05 ± 1.8e-05 s⁻¹	–
A14C A15C G62U G63C	< 1e-05 s⁻¹	–	–	–	–
A14G C19A A20G G21A G60A	< 1e-05 s⁻¹	–	–	–	–
G13U G60C	< 1e-05 s⁻¹	–	–	< 1e-05 s⁻¹	–
C16G A48C C50A C58U A64U	< 1e-05 s⁻¹	–	–	< 1e-05 s⁻¹	–
A14C A15U U56G	0.000225 ± 6.3e-05 s⁻¹	–	0.00145 ± 0.00027 s⁻¹	0.00809 ± 0.0027 s⁻¹	0.00238 ± 0.00057 s⁻¹
G13U G32U G37A G40C	< 1e-05 s⁻¹	–	–	–	–
C16A A42C G66U	< 1e-05 s⁻¹	–	–	< 1e-05 s⁻¹	–
C16A G37C	< 1e-05 s⁻¹	–	–	–	–
G13U C61U	< 1e-05 s⁻¹	< 1e-05 s⁻¹	< 1e-05 s⁻¹	< 1e-05 s⁻¹	–
C16U G44U U57A C68A	< 1e-05 s⁻¹	< 1e-05 s⁻¹	< 1e-05 s⁻¹	< 1e-05 s⁻¹	< 1e-05 s⁻¹
A15U G60A C61A G66U	< 1e-05 s⁻¹	–	–	–	–
C16A C71U	5.08e-05 ± 8.3e-06 s⁻¹	0.000159 ± 3.6e-05 s⁻¹	0.000293 ± 3.5e-05 s⁻¹	0.00133 ± 0.00014 s⁻¹	0.000355 ± 5.3e-05 s⁻¹
G13U G38U C68G	0.00012 ± 4.3e-05 s⁻¹	0.000111 ± 2.7e-05 s⁻¹	0.000157 ± 4.9e-05 s⁻¹	7.63e-05 ± 1.8e-05 s⁻¹	6.64e-05 ± 2.9e-05 s⁻¹
G13U C50G C70G	7.6e-05 ± 2.2e-05 s⁻¹	0.000214 ± 5.6e-05 s⁻¹	8.28e-05 ± 1.7e-05 s⁻¹	6.1e-05 ± 1.2e-05 s⁻¹	0.000166 ± 3.6e-05 s⁻¹

Variant	self-cleavage kobs at 40 uM GlcN6P [1]	self-cleavage kobs at 160 uM GlcN6P [2]	self-cleavage kobs at 640 uM GlcN6P [3]	self-cleavage kobs at 10000 uM GlcN6P [4]	self-cleavage kobs at 2500 uM GlcN6P [5]
C16U U55A	0.000949 ± 0.00012 s⁻¹	0.00192 ± 0.00041 s⁻¹	0.00568 ± 0.0014 s⁻¹	0.0419 ± 0.0089 s⁻¹	0.0131 ± 0.0022 s⁻¹
A14C A36G A48U G59A	< 1e-05 s⁻¹	–	< 1e-05 s⁻¹	< 1e-05 s⁻¹	< 1e-05 s⁻¹
A14U A33G	< 1e-05 s⁻¹	–	< 1e-05 s⁻¹	< 1e-05 s⁻¹	–
A14C A42C	< 1e-05 s⁻¹	–	< 1e-05 s⁻¹	–	< 1e-05 s⁻¹
A14G A15U U31C	0.000793 ± 0.00021 s⁻¹	–	–	0.0212 ± 0.0057 s⁻¹	–
A14U G63U	< 1e-05 s⁻¹	< 1e-05 s⁻¹	< 1e-05 s⁻¹	–	< 1e-05 s⁻¹
A14U G63A	< 1e-05 s⁻¹	–	< 1e-05 s⁻¹	–	–
C16A C61U	< 1e-05 s⁻¹	< 1e-05 s⁻¹	< 1e-05 s⁻¹	< 1e-05 s⁻¹	< 1e-05 s⁻¹
A15G C34U	< 1e-05 s⁻¹	< 1e-05 s⁻¹	< 1e-05 s⁻¹	< 1e-05 s⁻¹	< 1e-05 s⁻¹
A15U G32A A42C U54C U56G G63A	< 1e-05 s⁻¹	–	–	–	–
A14G U56C G59U	< 1e-05 s⁻¹	–	–	2.7e-05 ± 1.3e-05 s⁻¹	–
A15G U55G G63A	< 1e-05 s⁻¹	–	–	< 1e-05 s⁻¹	–
G13U G40U A48C A53G U57G	< 1e-05 s⁻¹	–	–	–	–
A15C C16A U31G A36G A39G A42C	< 1e-05 s⁻¹	–	–	–	< 1e-05 s⁻¹
A14G G37A A42U U69A	0.000165 ± 2.5e-05 s⁻¹	–	0.00196 ± 0.00035 s⁻¹	0.0157 ± 0.0032 s⁻¹	–
A15C C50G A53G	7e-05 ± 2.9e-05 s⁻¹	–	–	–	–
A15G G43U A53C	< 1e-05 s⁻¹	–	–	–	–
A15G A33U C71U	< 1e-05 s⁻¹	–	–	5.87e-05 ± 1.3e-05 s⁻¹	–
A14G A48C C68A	< 1e-05 s⁻¹	< 1e-05 s⁻¹	–	< 1e-05 s⁻¹	–
A14U U31G G38C A52U A53U	< 1e-05 s⁻¹	–	–	–	–
G13U U31C A64U	< 1e-05 s⁻¹	–	–	–	–
A14C G41A C50G G59U	< 1e-05 s⁻¹	–	–	–	–
A14U C50U G59C C70U	< 1e-05 s⁻¹	–	–	–	–
A15G G35A	< 1e-05 s⁻¹	< 1e-05 s⁻¹	–	< 1e-05 s⁻¹	–

Reference: the supplement of paper PMC7125110
